# Measured values: publication PMC7145662, “Crystal structure of the EcoKMcrA N-terminal domain (NEco): recognition of modified cytosine bases without flipping”
# Substitutions are numbered along the chain they refer to.
# T1: NEco (EcoKMcrA N-terminal domain) (Escherichia coli K) (UniProt P24200)
# T1 sequence: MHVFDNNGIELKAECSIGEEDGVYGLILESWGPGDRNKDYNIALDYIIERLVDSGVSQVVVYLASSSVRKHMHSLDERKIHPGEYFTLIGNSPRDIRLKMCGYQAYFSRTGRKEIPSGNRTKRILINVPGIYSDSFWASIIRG
# T2: NEco (EcoKMcrA N-terminal domain) (Escherichia coli K, UniProt P24200 1-143)
# T2 sequence: T1 sequence
# T3: NEco W31A (Escherichia coli K, UniProt P24200 1-143, W31A)
# T3 sequence: T1 sequence with W31A
# T4: NEco W31H (Escherichia coli K, UniProt P24200 1-143, W31H)
# T4 sequence: T1 sequence with W31H
# T5: NEco S30V (Escherichia coli K, UniProt P24200 1-143, S30V)
# T5 sequence: T1 sequence with S30V
# T6: NEco S30L (Escherichia coli K, UniProt P24200 1-143, S30L)
# T6 sequence: T1 sequence with S30L
# T7: NEco W31L (Escherichia coli K, UniProt P24200 1-143, W31L)
# T7 sequence: T1 sequence with W31L
# T8: NEco N119A (Escherichia coli K, UniProt P24200 1-143, N119A)
# T8 sequence: T1 sequence with N119A
# T9: NEco W31I (Escherichia coli K, UniProt P24200 1-143, W31I)
# T9 sequence: T1 sequence with W31I
# T10: NEco W31V (Escherichia coli K, UniProt P24200 1-143, W31V)
# T10 sequence: T1 sequence with W31V
# T11: NEco S30A (Escherichia coli K, UniProt P24200 1-143, S30A)
# T11 sequence: T1 sequence with S30A
# T12: NEco W31Y (Escherichia coli K, UniProt P24200 1-143, W31Y)
# T12 sequence: T1 sequence with W31Y
# T13: NEco W31F (Escherichia coli K, UniProt P24200 1-143, W31F)
# T13 sequence: T1 sequence with W31F
# T14: NEco W31S (Escherichia coli K, UniProt P24200 1-143, W31S)
# T14 sequence: T1 sequence with W31S
# B1: 30 bp CTGG/C5mCAG (T:A pair) (dsDNA)
# DNA 1: AGACCCACGCTCACTGGTTCCAGATTTATC
# DNA 2: GATAAATCTGGAACCAGTGAGCGTGGGTCT
# modifications: 5mC in one strand
# B2: 30 bp CCGG non-methylated (dsDNA)
# DNA 1: B1 DNA 1 with T15C
# DNA 2: B1 DNA 2 with A16G
# B3: 30 bp CCGG hemi-methylated (dsDNA)
# DNA 1: B1 DNA 1 with T15C
# DNA 2: B1 DNA 2 with A16G
# modifications: 5mC at inner C of CCGG, one strand
# B4: 30 bp C5hmCGG fully hydroxymethylated (dsDNA)
# DNA 1: B1 DNA 1 with T15C
# DNA 2: B1 DNA 2 with A16G
# modifications: 5hmC at inner C of CCGG, both strands
# B5: 30 bp C5mCGG fully methylated (dsDNA)
# DNA 1: B1 DNA 1 with T15C
# DNA 2: B1 DNA 2 with A16G
# modifications: 5mC at inner C of CCGG, both strands
# B6: 30 bp CTGG/C5mCGG (T:G mismatch) (dsDNA)
# DNA 1: B1 DNA 1
# DNA 2: B1 DNA 2 with A16G
# modifications: 5mC in one strand
# Tests used:
# [1] = molecular target: T1, NEco (EcoKMcrA N-terminal domain) (Escherichia coli K); assay: competition; conditions: 5mC in CpG, both strands; EMSA: 10 nM 33P/32P 30 bp duplex, 5-2000 nM NEco; competition: 10 nM labeled C5mCGG, 10 nM NEco, 3-3000 nM unlabeled competitor; buffer, pH and temperature not …
# [2] = molecular target: T2, NEco (EcoKMcrA N-terminal domain); assay: competition; EMSA: 10 nM 33P/32P 30 bp duplex, 5-2000 nM NEco; competition: 10 nM labeled C5mCGG, 10 nM NEco, 3-3000 nM unlabeled competitor; buffer, pH and temperature not; conditions: protein: recombinant
# [3] = molecular target: T2, NEco (EcoKMcrA N-terminal domain); assay: as above; conditions: protein: recombinant; remark: listed apart in the source
# [4] = molecular target: T3, NEco W31A; assay: EMSA; discrete complexes, unlike wt; EMSA: 10 nM 33P/32P 30 bp duplex, 5-2000 nM NEco; competition: 10 nM labeled C5mCGG, 10 nM NEco, 3-3000 nM unlabeled competitor; buffer, pH and temperature not; conditions: protein: recombinant
# [5] = molecular target: T4, NEco W31H; assay: competition; EMSA: 10 nM 33P/32P 30 bp duplex, 5-2000 nM NEco; competition: 10 nM labeled C5mCGG, 10 nM NEco, 3-3000 nM unlabeled competitor; buffer, pH and temperature not; conditions: protein: recombinant
# [6] = molecular target: T5, NEco S30V; assay: EMSA; EMSA: 10 nM 33P/32P 30 bp duplex, 5-2000 nM NEco; competition: 10 nM labeled C5mCGG, 10 nM NEco, 3-3000 nM unlabeled competitor; buffer, pH and temperature not; conditions: protein: recombinant
# [7] = molecular target: T6, NEco S30L; assay: as above; conditions: protein: recombinant
# [8] = molecular target: T7, NEco W31L; assay: as above; conditions: protein: recombinant
# [9] = molecular target: T8, NEco N119A; assay: as above; conditions: protein: recombinant
# [10] = molecular target: T9, NEco W31I; assay: as above; conditions: protein: recombinant
# [11] = molecular target: T10, NEco W31V; assay: as above; conditions: protein: recombinant
# [12] = molecular target: T11, NEco S30A; assay: as above; conditions: protein: recombinant
# [13] = molecular target: T12, NEco W31Y; assay: as above; conditions: protein: recombinant
# [14] = molecular target: T3, NEco W31A; assay: as above; conditions: protein: recombinant
# [15] = molecular target: T13, NEco W31F; assay: as above; conditions: protein: recombinant
# [16] = molecular target: T14, NEco W31S; assay: as above; conditions: protein: recombinant
molecule,measurement,setting,value
AGACCCACGCTCAGCGCTTCCAGATTTATC (double strand) [30 bp G5mCGC],binding signal (fold lower affinity than G5mCGG/C5mCGC),[1],> 25
AGACCCACGCTCAGCGGTTCCAGATTTATC (double strand) [30 bp G5mCGG/C5mCGC],binding signal (fold lower affinity than C5mCGG),[1],100
B1,binding signal,[2],> 2000 fold lower affinity than C5mCGG
B2,binding signal,[3],~10 fold lower affinity than hemi-methylated
B3,binding result,[4],binds
same,binding signal,[5],~35 fold lower affinity than fully methylated (same variant)
same,binding signal,[3],~230 fold lower affinity than fully methylated
B4,binding signal,[3],~40 fold lower affinity than fully methylated
B5,binding signal,[6],> 50 fold decreased vs wt NEco
same,binding signal,[7],> 50 fold decreased vs wt NEco
same,binding signal,[8],> 50 fold decreased vs wt NEco
same,binding signal,[9],~40 fold impaired vs wt NEco
same,binding signal,[10],> 50 fold decreased vs wt NEco
same,binding signal,[11],> 50 fold decreased vs wt NEco
same,binding result,[12],binds
same,binding result,[13],binds
same,binding result,[14],binds
same,binding result,[15],binds
same,binding result,[16],binds
B6,binding signal,[2]; T:G mismatch,~500 fold lower affinity than C5mCGG
